Data taken from the supplement of paper PMC10126150.
± gives the standard deviation of the averaged measurements.

Test system: ATP
Assay: switch fluorescence ratio, 500 uM ATP over buffer (Cy3 cluster intensity, sum of 5 cycles each) (fold (ratio)); higher = stronger signal-on switching upon ATP binding; sequences stand for … in TCGTCGGCAGCGTCAGATGTGTATAAGAGACAGTTTTTTTTTTTTTTTTTTTTTTTTT…TC
Settings: aptamer strand: ATP DNA aptamer (quencher-CACCTGGGGGAGTATTGCGGAGGAAGG + anchor), 100 nM annealed; ATP concentration: 500 uM
Method in brief: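 Exposure to 500 uM ATP lasted 15 min at 22 °C before imaging, and a selection-buffer image was taken beforehand, for Cy3-labelled switching-strand clusters on a modified Illumina MiSeq flow-cell annealed to 100 nM quencher-labelled ATP aptamer. Five buffer/ATP cycles were run with NaOH stripping and re-annealing between them. The fluorescence ratio per cluster is summed target-cycle over summed buffer-cycle Cy3 intensity, averaged per switch-domain sequence. Clusters outside 100-1000 RFU were excluded.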

Sequence | switch fluorescence ratio
CTTGTATGGG | 1.01 ± 0.029
TTGGGTGAAG | 1.01 ± 0.025
AGGAGTGGCG | 0.97841 ± 0.00086
GTCTTATGGC | 0.997 ± 0.011
CATGTTTCTG | 0.9927 ± 0.0078
TTCAGTTAAT | 1 ± 0.0032
TTACGGTCCA | 1.05 ± 0.017
TTGCTTATGG | 1.01 ± 0.015
ACGAGCTGCT | 1.032 ± 0.0038
ATTTGGTGCA | 1.01 ± 0.056
GATTAAAAAT | 1.0123 ± 0.00055
GAGTGAGCAG | 0.976 ± 0.022
GGATTAGGCG | 0.981 ± 0.018
TTGGGTGCGG | 1 ± 0.066
AACTTAGTGG | 0.996 ± 0.028
CCCTTGCGGT | 1.03 ± 0.047
GCTACTTTGC | 1.037 ± 0.0045
CAAGTAGACC | 0.997 ± 0.13
CGACATGGTC | 1.02 ± 0.015
GAAGGGCCTG | 1.05 ± 0.056
AAGCTTGCCT | 0.9871 ± 0.0013
TGGTTTTCTT | 0.992 ± 0.03
TAAGAAGGGT | 0.991 ± 0.024
ACCGTAGCTT | 2.61 ± 0.14
TTTGAGCCCC | 1.04 ± 0.1

Sequence | switch fluorescence ratio
ACTGGGTAGA | 1.0278 ± 0.00073
GAGGTAAGTG | 0.954 ± 0.024
ATAGTAACAC | 1.06 ± 0.038
GGAGCAGCTA | 1.06 ± 0.028
TAAGTTTTAT | 0.984 ± 0.021
GCGAGGGGTG | 1.02 ± 0.048
ATTGGTATAT | 1.007 ± 0.0068
CAAAGGGGGT | 1 ± 0.016
AGCAAAGTA | 0.9748 ± 0.0062
GATATTTTTG | 1 ± 0.024
GAGTTGTTGT | 0.996 ± 0.018
GGCGGTATGG | 1.01 ± 0.026
GGCATGTGGT | 1.0254 ± 0.001
TCACGGGTGC | 1.91 ± 0.19
AAAGCTGGGG | 0.981 ± 0.048
TATTTAGACC | 1.04 ± 0.012
ACCTCATTTG | 1.067 ± 0.0049
GTTTGGGGTG | 0.999 ± 0.043
ATCGGTTACC | 1.011 ± 0.0045
TTATTAGATG | 0.997 ± 0.018
GCTATTTGGA | 0.997 ± 0.012
GAAACGAAGG | 0.9704 ± 0.0028
GCGTTTTGCA | 0.978 ± 0.015
CATGTCAGGA | 1.02 ± 0.018
CGGGTTGTTA | 0.9951 ± 0.0081

Sequence | switch fluorescence ratio
TAGGTCTGGG | 1.01 ± 0.036
TCGCGAGGAG | 1.04 ± 0.014
TACTTGAGCG | 1.02 ± 0.02
GATCGGGTTG | 0.999 ± 0.026
GCGTTGGGGC | 1 ± 0.054
TTTAATAGCT | 1 ± 0.04
TTTCGTAAGA | 0.995 ± 0.016
TACGGAGGGT | 1.22 ± 0.31
TAAGGGCGTT | 0.994 ± 0.022
TACTGGGGGA | 1.07 ± 0.03
TTGTTAGTCT | 0.982 ± 0.024
TAGTTTGGAT | 1.01 ± 0.026
TAGGGTTGTG | 0.9838 ± 0.0033
AAGATAGCGG | 0.9978 ± 6.2e-05
TACGAGTTCT | 0.984 ± 0.013
GTTTAAGGAC | 0.991 ± 0.038
TAATCTAATA | 0.987 ± 0.046
CGTGCTAGTA | 1.02 ± 0.058
TGGATGTGGC | 0.963 ± 0.031
CGGCAGTAAT | 1.471 ± 0.003
TAACGGCCTC | 1.04 ± 0.023
CAGGGGAGGG | 1.06 ± 0.09
CAGTGAGGTA | 0.984 ± 0.023
AATGGGATGT | 0.981 ± 0.017
AACGGCGCAT | 1.02 ± 0.052

Sequence | switch fluorescence ratio
TAAACAGTTC | 1.05 ± 0.073
TCATTTTCTT | 0.9688 ± 0.0049
GAATGTTTGA | 0.984 ± 0.044
CGGGTTGTCT | 0.963 ± 0.1
TTAGCCAGCT | 0.96986 ± 0.00044
CATATTGAAT | 1.01 ± 0.02
TTTCATGTTA | 0.987 ± 0.0084
TCAAGCGAAC | 1.48 ± 0.061
AACCTGGGGG | 1.1 ± 0.15
TTAACGCAA | 3.6 ± 2
ACCGGTTTTT | 1.04 ± 0.045
TACGGGGCCA | 0.992 ± 0.01
GACCACTTGA | 1.01 ± 0.014
GCCGTTGCAT | 1.022 ± 0.0019
CATGGTAGAG | 0.975 ± 0.034
TCTGGGGTTT | 1.03 ± 0.051
GTTATATAGG | 0.982 ± 0.046
TTGCCTCGGG | 1.04 ± 0.037
ACTAAAAAAA | 0.991 ± 0.025
AACTGACGAA | 1.29 ± 0.019
CGTTGAGGGT | 0.99 ± 0.014
GAAATGATTT | 1.0406 ± 6.4e-05
TCAGTCGTGG | 0.9928 ± 0.0033
AAATTCGGCG | 1.01 ± 0.023
GTATTGAAGT | 0.98469 ± 0.00015
